Laboratory results: article PMC6080891 (The Journal of General Physiology, 2018)

Target: the molecule itself
Assay: native gel or EMSA

B1: UNC-103::GFP (natural protein, C. elegans, UniProt G5EFJ9 1-829, looked up)
chain: MKTAVFGRDSGEPGSPCGAPPSLTFTPPATLVPPTHHHSRSTNRGGVSGTGGGGSGGLQGAPGAGGPRASHSSRRTSRLHNNVSALGVLSLGADVLPEYKLQPTRIHHCTIVHYSPFKAVWDWIILLLVIYTAVFTPYVAAFLLRELQDTAKKSRFTEPLEIVDLIVDIMFIVDIIINFRTTYVNENDEACQVVSDPGKIATHYFKGWFIIDMVAAVPFDLLLVSTNSDETTTLIGLLKTARLLRLVRVARKLDRYSEYGAAVLLLLMATFALIAHWLACIWYAIGSAELSHKEYTWLHQLSKQLAQPYTSTNGTIPTGGPTLKSRYVTSLYFTLSTITSIGFGNVSATTDSEKIFTIIMMILGSLMYASVFGNVSAIIQRLYSGTARYHTEMSRLREFIRFHQIPNPLRQRLEEYFQHAWSYTNGIDMNLVLKGFPDCLQADICLHLNRNLLSGCAAFAGSTPGCLRALSMRFRTTHSPPGDTLVHRGDILTGLYFIARGSVEILNDDNTVMGILGKDDIFGENPLLYDEVGKSSCNVRALTYCDLHKILRDDLLDVLDMYPEFAETFCKNLTITYNLRDDAQSLRKKFDRHKLLRMSSSMNKDRYTTPPDGDHGNAAVRRSAESVSRCDSNPIDRRQSAGSRSSSRCSPPHAALTATRSEATPLLRRSTNHHEEDDALFDDIRAFARGNTVTMSPTVAGNSVSPTTAIHNDGIHSQQLSDRSDDYEERRANMFGRRLESIESQMERMQNKFNSDMETLIKLVKEQSIIRNNGSSNEEPNARYRPNNYISSAIRLPNGGGGGVVDEMRVSRLSSHEPPTPTQETDTIL
- stoichiometry N: 4
